Legend:
[1] = target: N-succinyl-Ala-Leu-Pro-Phe-p-nitroanilide
[2] = target: bovine brain calcineurin (bovine) (UniProt P48452)

Row | Substance | PPIase activity [1] [fold] | IC50 for inhibition of CaN phosphatase activity (with FK-506, CaM, Ca2+, Mg2+) [2] [nM]
1 | cyclophilin (enzyme) | 25 | 
2 | recombinant human FKBP12 (from UniProt P62942) |  | 9.9
3 | FKBP12.6 (bovine, purified from calf brain cytosol) |  | 16

Reference: patent US5457182
